{"source": "patent US20120100161A1", "about": "(DEUTSCHES KREBSFORSCHUNGSZENTRUM, published 2012)", "molecular_target": "T1, Epithelial cell adhesion molecule (EpCAM, CD326) (human, UniProt P16422 24-314)", "T1 construct": "whole, on cells; Endogenous EpCAM on carcinoma cell lines; also called EpCAM antigen", "T1 sequence (looked up)": "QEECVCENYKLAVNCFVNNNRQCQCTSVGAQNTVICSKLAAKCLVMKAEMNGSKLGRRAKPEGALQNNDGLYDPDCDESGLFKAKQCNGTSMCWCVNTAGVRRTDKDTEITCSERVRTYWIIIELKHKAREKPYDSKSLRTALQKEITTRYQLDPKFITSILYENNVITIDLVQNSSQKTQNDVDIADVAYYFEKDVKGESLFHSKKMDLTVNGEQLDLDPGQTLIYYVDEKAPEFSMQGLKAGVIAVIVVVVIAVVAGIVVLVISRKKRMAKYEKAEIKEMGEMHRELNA", "test": "binding to EpCAM-expressing cells; method not stated"}
{"binder": "chimeric antibody huHEA125 (antibody, human IgG1, kappa, Mouse HEA125 variable domains on human kappa and human IgG1 constant regions; also called unmodified huHEA125 antibody; non-conjugated huHEA125 antibody) heavy: not shown light: DILLTQSPAILSVSPGERVSFSCRASQSIGISLHWYQQRPSDSPRLLIKYASESISGIPSRFSGSGSGTDFTLSINSVESEDIADYYCQQSNIWPTTFGAGTKLELKRTVAAPSVFIFPPSDEQLKSGTASVVCLLNNFYPREAKVQWKVDNALQSGNSQESVTEQDSKDSTYSLSSTLTLSKADYEKHKVYACEVTHQGLSSPVTKSFNRGEC", "values": [{"measurement": "Kd", "result": 2.2, "unit": "nM"}]}
